{
  "source": "paper PMC10209092",
  "molecular_target": "endogenous AMPKα (5'-adenosine monophosphate-activated protein kinase, α subunit), Q13131",
  "sequence (Q13131 whole entry)": "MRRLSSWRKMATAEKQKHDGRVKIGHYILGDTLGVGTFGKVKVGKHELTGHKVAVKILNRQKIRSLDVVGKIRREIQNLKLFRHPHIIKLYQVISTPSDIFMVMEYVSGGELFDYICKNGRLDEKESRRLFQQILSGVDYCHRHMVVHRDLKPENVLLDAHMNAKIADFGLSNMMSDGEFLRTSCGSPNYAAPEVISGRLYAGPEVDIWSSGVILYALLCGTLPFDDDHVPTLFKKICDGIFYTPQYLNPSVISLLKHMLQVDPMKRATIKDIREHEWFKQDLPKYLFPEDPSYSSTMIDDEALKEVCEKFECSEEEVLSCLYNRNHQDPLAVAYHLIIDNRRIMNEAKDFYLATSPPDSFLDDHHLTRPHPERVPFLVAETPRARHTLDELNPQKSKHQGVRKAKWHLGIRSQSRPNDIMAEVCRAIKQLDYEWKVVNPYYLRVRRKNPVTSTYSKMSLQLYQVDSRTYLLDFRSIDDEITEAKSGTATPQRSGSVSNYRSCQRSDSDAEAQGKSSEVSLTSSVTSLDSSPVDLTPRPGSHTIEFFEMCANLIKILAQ",
  "assay": "co-immunoprecipitation, quantified band intensity",
  "settings": "chain shown with the change, n=2 (WT n=3), read off a plot",
  "data": [
    {"binder": "myc-tagged ULK1 (UNC-51 like kinase 1), wild type, O75385 S556A; T660A (protein) MEPGRGGTETVGKFEFSRKDLIGHGAFAVVFKGRHREKHDLEVAVKCINKKNLAKSQTLLGKEIKILKELKHENIVALYDFQEMANSVYLVMEYCNGGDLADYLHAMRTLSEDTIRLFLQQIAGAMRLLHSKGIIHRDLKPQNILLSNPAGRRANPNSIRVKIADFGFARYLQSNMMAATLCGSPMYMAPEVIMSQHYDGKADLWSIGTIVYQCLTGKAPFQASSPQDLRLFYEKNKTLVPTIPRETSAPLRQLLLALLQRNHKDRMDFDEFFHHPFLDASPSVRKSPPVPVPSYPSSGSGSSSSSSSTSHLASPPSLGEMQQLQKTLASPADTAGFLHSSRDSGGSKDSSCDTDDFVMVPAQFPGDLVAEAPSAKPPPDSLMCSGSSLVASAGLESHGRTPSPSPPCSSSPSPSGRAGPFSSSRCGASVPIPVPTQVQNYQRIERNLQSPTQFQTPRSSAIRRSGSTSPLGFARASPSPPAHAEHGGVLARKMSLGGGRPYTPSPQVGTIPERPGWSGTPSPQGAEMRGGRSPRPGSSAPEHSPRTSGLGCRLHAAPNLSDLHVVRPKLPKPPTDPLGAVFSPPQASPPQPSHGLQSCRNLRGSPKLPDFLQRNPLPPILGSPTKAVPSFDFPKTPSSQNLLALLARQGVVMTPPRNRALPDLSEVGPFHGQPLGPGLRPGEDPKGPFGRSFSTSRLTDLLLKAAFGTQAPDPGSTESLQEKPMEIAPSAGFGGSLHPGARAGGTSSPSPVVFTVGSPPSGSTPPQGPRTRMFSAGPTGSASSSARHLVPGPCSEAPAPELPAPGHGCSFADPITANLEGAVTFEAPDLPEETLMEQEHTEILRGLRFTLLFVQHVLEIAALKGSASEAAGGPEYQLQESVVADQISLLSREWGFAEQLVLYLKVAELLSSGLQSAIDQIRAGKLCLSSTVKQVVRRLNELYKASVVSCQGLSLRLQRFFLDKQRLLDRIHSITAERLIFSHAVQMVQSAALDEMFQHREGCVPRYHKALLLLEGLQHMLSDQADIENVTKCKLCIERRLSALLTGICA", "values": [
      {"measurement": "response (relative AMPK-ULK1 interaction)", "setting": "amino acids +, A769662 +, parent: est. 1.2", "result": 1},
      {"measurement": "response (relative AMPK-ULK1 interaction)", "setting": "amino acids +, A769662 -, parent: est. 1.0", "result": 0.4},
      {"measurement": "response (relative AMPK-ULK1 interaction)", "setting": "amino acids -, A769662 +, parent: est. 1.1", "result": 0.15},
      {"measurement": "response (relative AMPK-ULK1 interaction)", "setting": "amino acids -, A769662 -, parent: est. 0.25", "result": 0.1}
    ]}
  ]
}
